Results on two molecules are retold here after patent US20020127232A1.

In test [1] the target is α2M receptor on peritoneal macrophages of C57BL/6 mice (mouse) (UniProt Q91ZX7). The test is described as follows: saturation binding of 125I-labeled ligand (0.23-60 nM) to mouse peritoneal macrophages at 4 °C for 16 h; one-site fit; concentration based on the mixture of slow and fast forms.
The target is the same in test [2]. Kind of test: saturation binding of 125I-labeled ligand (0.23-60 nM) to mouse peritoneal macrophages at 4 °C for 16 h; one-site fit.

The Kd is the constant that tells how readily two partners part at equilibrium. As to “α2M*-lysozyme complex formed by incubation at 50° C. (5 h), radio-iodinated with Na125I (from UniProt P01023 24-1474; P00698 19-147)”, the dissociation constant (Kd) in test [1] was found to be 8 nM.

B1: α2-macroglobulin* (NH3-treated, thiol ester-cleaved human α2-macroglobulin) (protein, UniProt P01023 24-1474, looked up)
chain: SVSGKPQYMVLVPSLLHTETTEKGCVLLSYLNETVTVSASLESVRGNRSLFTDLEAENDVLHCVAFAVPKSSSNEEVMFLTVQVKGPTQEFKKRTTVMVKNEDSLVFVQTDKSIYKPGQTVKFRVVSMDENFHPLNELIPLVYIQDPKGNRIAQWQSFQLEGGLKQFSFPLSSEPFQGSYKVVVQKKSGGRTEHPFTVEEFVLPKFEVQVTVPKIITILEEEMNVSVCGLYTYGKPVPGHVTVSICRKYSDASDCHGEDSQAFCEKFSGQLNSHGCFYQQVKTKVFQLKRKEYEMKLHTEAQIQEEGTVVELTGRQSSEITRTITKLSFVKVDSHFRQGIPFFGQVRLVDGKGVPIPNKVIFIRGNEANYYSNATTDEHGLVQFSINTTNVMGTSLTVRVNYKDRSPCYGYQWVSEEHEEAHHTAYLVFSPSKSFVHLEPMSHELPCGHTQTVQAHYILNGGTLLGLKKLSFYYLIMAKGGIVRTGTHGLLVKQEDMKGHFSISIPVKSDIAPVARLLIYAVLPTGDVIGDSAKYDVENCLANKVDLSFSPSQSLPASHAHLRVTAAPQSVCALRAVDQSVLLMKPDAELSASSVYNLLPEKDLTGFPGPLNDQDNEDCINRHNVYINGITYTPVSSTNEKDMYSFLEDMGLKAFTNSKIRKPKMCPQLQQYEMHGPEGLRVGFYESDVMGRGHARLVHVEEPHTETVRKYFPETWIWDLVVVNSAGVAEVGVTVPDTITEWKAGAFCLSEDAGLGISSTASLRAFQPFFVELTMPYSVIRGEAFTLKATVLNYLPKCIRVSVQLEASPAFLAVPVEKEQAPHCICANGRQTVSWAVTPKSLGNVNFTVSAEALESQELCGTEVPSVPEHGRKDTVIKPLLVEPEGLEKETTFNSLLCPSGGEVSEELSLKLPPNVVEESARASVSVLGDILGSAMQNTQNLLQMPYGCGEQNMVLFAPNIYVLDYLNETQQLTPEIKSKAIGYLNTGYQRQLNYKHYDGSYSTFGERYGRNQGNTWLTAFVLKTFAQARAYIFIDEAHITQALIWLSQRQKDNGCFRSSGSLLNNAIKGGVEDEVTLSAYITIALLEIPLTVTHPVVRNALFCLESAWKTAQEGDHGSHVYTKALLAYAFALAGNQDKRKEVLKSLNEEAVKKDNSVHWERPQKPKAPVGHFYEPQAPSAEVEMTSYVLLAYLTAQPAPTSEDLTSATNIVKWITKQQNAQGGFSSTQDTVVALHALSKYGAATFTRTGKAAQVTIQSSGTFSSKFQVDNNNRLLLQQVSLPELPGEYSMKVTGEGCVYLQTSLKYNILPEKEEFPFALGVQTLPQTCDEPKAHTSFQISLSVSYTGSRSASNMAIVDVKMVSGFIPLKPTVKMLERSNHVSRTEVSSNHVLIYLDKVSNQTLSLFFTVLQDVPVRDLKPAIVKVYDYYETDEFAIAEYNAPCSKDLGNA
modifications: thiol ester cleaved by NH3: free Cys949, Gln952 modified with -NH2; bait region intact; radio-iodinated with Na125I in the macrophage binding study
Take B1: the Kd in test [2] amounted to 5 nM.
